Data published in patent publication US20250281611A1 (BIOSCEPTRE AUST, published 2025).

T1: CD19 (UniProt P15391 20-556, limits assumed)
T1 construct: whole, on cells; also called CD19 on JeKo-1
T1 sequence (looked up): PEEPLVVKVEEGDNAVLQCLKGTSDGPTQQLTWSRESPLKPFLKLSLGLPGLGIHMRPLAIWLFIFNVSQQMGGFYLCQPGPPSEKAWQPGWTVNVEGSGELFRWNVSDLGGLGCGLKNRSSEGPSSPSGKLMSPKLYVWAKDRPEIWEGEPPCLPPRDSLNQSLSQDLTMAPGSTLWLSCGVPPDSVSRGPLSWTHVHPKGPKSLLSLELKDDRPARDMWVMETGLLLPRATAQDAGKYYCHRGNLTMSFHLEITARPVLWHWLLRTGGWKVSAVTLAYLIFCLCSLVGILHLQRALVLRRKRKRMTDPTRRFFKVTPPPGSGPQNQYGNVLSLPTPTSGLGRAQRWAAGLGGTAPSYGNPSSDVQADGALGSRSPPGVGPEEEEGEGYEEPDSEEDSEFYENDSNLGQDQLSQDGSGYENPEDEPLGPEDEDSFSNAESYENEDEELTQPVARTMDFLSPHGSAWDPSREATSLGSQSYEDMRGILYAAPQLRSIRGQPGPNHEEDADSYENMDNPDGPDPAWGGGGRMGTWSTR


Assays:
nfP2X7 CAR 1 [1] = target: T2, nfP2X7 CAR 1; assay: flow cytometry, anti-His-FITC, MFI on EGFR+ (CAR+) over EGFR- (CAR-) T cells
T2 construct: CAR-positive cells gated by the co-expressed EGFR marker; also called nfP2X7 targeted CAR; nfP2X7 CAR on EGFR+ T cells
Protocol: (§1) nfP2X₇ CAR T cells were incubated with different BRiDGE variants at saturating concentrations. […] The MFI intensity correlates with the number of secondary bound antibodies bound to the BRiDGEs that are only detected if they are bound to the CAR T cells. EGFR was used as a marker gene to detect the CAR expression. Thus, the EGFR+ T cell population was defined as the CAR expressing cells and the EGFR− T cell population was defined as the CAR negative subset. MFI: median fluorescence intensity. EGFR: epidermal growth factor receptor. BLItz: Bio-Layer interferometry (BLI) technology using HIS-tag identification tips. HIS-tag MFI Ratio: relative index that is calculated by the testing condition MFI divided by the control MFI, which corresponds to the MFI measured on EGFR+ T cells (defined as CAR positive cells) divided by the MFI measured on the EGFR− T cells (defined as CAR negative cells). […] The higher the MFIR, the stronger the binding.

CD19 [2] = target: T1, CD19; assay: flow cytometry, JeKo-1 cells, anti-His-FITC detection, MFI over no-bridge control
Protocol: (§2) JeKo-1 cells were incubated with different CD19 BRiDGE variants at saturating concentrations. […] The MFI intensity correlates with the number of secondary bound antibodies bound to the CD19 BRiDGE variants that are only detected if they are bound to the JeKo-1 cells. MFI: median fluorescence intensity. BLitz: Bio-Layer interferometry (BLI) technology using HIS-tag identification tips. […] The higher the MFIR, the stronger the binding.

CD19 [3] = target: T1, CD19; assay: flow cytometry, JeKo-1 cells, BIL03s-AF647 detection, MFI over no-bridge control
Protocol: as §2

nfP2X7 CAR 1 [4] = target: T2, nfP2X7 CAR 1; assay: flow cytometry, nfP2X7 CAR 1 T cells (EGFR+ gate), anti-His-FITC detection
Protocol: as §1

CD19 [5] = target: T1, CD19; assay: flow cytometry, JeKo-1 cells, bridge at saturating conc., anti-His-FITC detection
Protocol: as §2

CD19 [6] = target: T1, CD19; assay: flow cytometry, JeKo-1 cells, bridge at saturating conc., BIL03s-AF647 detection
Protocol: as §2

nfP2X7 CAR 1 [7] = target: T2, nfP2X7 CAR 1; assay: flow cytometry, anti-His-FITC, MFI on EGFR+ (CAR+) T cells over background 0.44
Protocol: as §1

Binder	HisTag MFI Ratio of EGFR+/EGFR- (nfP2X7 CAR 1 [1])	MFIR HisTag FITC (CD19 [2])	MFIR BIL03 AF647 (CD19 [3])	MFI HisTag FITC in EGFR+ Population (nfP2X7 CAR 1 [4])	MFI HisTag FITC (CD19 [5])	MFI Bil03 AF647 (CD19 [6])	HisTag MFI Ratio (background 0.44) (nfP2X7 CAR 1 [7])
CD19 BRIDGE variant B17 (Fab) heavy: EVQLVESGGGLVKPGGSLKLSCAASGYTFTSYVMHWVRQAPGKGLEWIGYINPYNDGTKYNEKFQGRVTISSDKSISTAYMELSSLRSEDTAMYYCARGTYYYGTRVFDYWGQGTLVTVSSASTKGPSVFPLAPSSKSTSGGTAALGCLVKDYFPEPVTVSWNSGALTSGVHTFPAVLQSSGLYSLSSVVTVPSSSLGTQTYICNVNHKPSNTKVDKKVEPKSCHHHHHH light: GHNYTTRNILPGLNITSTFHKTSGSGKGSEPKSSDKTHTGGGGSDIVMTQSPATLSLSPGERATLSCRSSKSLQNVNGNTYLYWFQQKPGQSPQLLIYRMSNLNSGVPDRFSGSGSGTEFTLTISSLEPEDFAVYYCMQHLEYPITFGAGTKLEIKRTVAAPSVFIFPPSDEQLKSGTASVVCLLNNFYPREAKVQWKVDNALQSGNSQESVTEQDSKDSTYSLSSTLTLSKADYEKHKVYACEVTHQGLSSPVTKSFNRGEC	4.2	3.87	20.2	2.25	2.98	9.3	5.1
CD19 BRIDGE variant B18 (Fab) heavy: EVQLVESGGGLVKPGGSLKLSCAASGYTFTSYVMHWVRQAPGKGLEWIGYINPYNDGTKYNEKFQGRVTISSDKSISTAYMELSSLRSEDTAMYYCARGTYYYGTRVFDYWGQGTLVTVSSASTKGPSVFPLAPSSKSTSGGTAALGCLVKDYFPEPVTVSWNSGALTSGVHTFPAVLQSSGLYSLSSVVTVPSSSLGTQTYICNVNHKPSNTKVDKKVEPKSCHHHHHH light: GHNYTTRNILPGLNITSTFHKTSGSGKGGGGSEPKSSDKTHTGGGGSDIVMTQSPATLSLSPGERATLSCRSSKSLQNVNGNTYLYWFQQKPGQSPQLLIYRMSNLNSGVPDRFSGSGSGTEFTLTISSLEPEDFAVYYCMQHLEYPITFGAGTKLEIKRTVAAPSVFIFPPSDEQLKSGTASVVCLLNNFYPREAKVQWKVDNALQSGNSQESVTEQDSKDSTYSLSSTLTLSKADYEKHKVYACEVTHQGLSSPVTKSFNRGEC	4.2	3.94	23.7	2.25	3.03	10.9	5.1
CD19 BRIDGE variant B22 (Fab) heavy: EVQLVESGGGLVKPGGSLKLSCAASGYTFTSYVMHWVRQAPGKGLEWIGYINPYNDGTKYNEKFQGRVTISSDKSISTAYMELSSLRSEDTAMYYCARGTYYYGTRVFDYWGQGTLVTVSSASTKGPSVFPLAPSSKSTSGGTAALGCLVKDYFPEPVTVSWNSGALTSGVHTFPAVLQSSGLYSLSSVVTVPSSSLGTQTYICNVNHKPSNTKVDKKVEPKSCHHHHHH light: DFPGHNYTTRNILPGLNITSTFHKTSGSGKEPKSSDKTHTDIVMTQSPATLSLSPGERATLSCRSSKSLQNVNGNTYLYWFQQKPGQSPQLLIYRMSNLNSGVPDRFSGSGSGTEFTLTISSLEPEDFAVYYCMQHLEYPITFGAGTKLEIKRTVAAPSVFIFPPSDEQLKSGTASVVCLLNNFYPREAKVQWKVDNALQSGNSQESVTEQDSKDSTYSLSSTLTLSKADYEKHKVYACEVTHQGLSSPVTKSFNRGEC	4	3.3	10.5	2.21	2.54	4.85	5
CD19 BRIDGE variant B21 (Fab) heavy: EVQLVESGGGLVKPGGSLKLSCAASGYTFTSYVMHWVRQAPGKGLEWIGYINPYNDGTKYNEKFQGRVTISSDKSISTAYMELSSLRSEDTAMYYCARGTYYYGTRVFDYWGQGTLVTVSSASTKGPSVFPLAPSSKSTSGGTAALGCLVKDYFPEPVTVSWNSGALTSGVHTFPAVLQSSGLYSLSSVVTVPSSSLGTQTYICNVNHKPSNTKVDKKVEPKSCHHHHHH light: DFPGHNYTTRNILPGLNITSGGGGSEPKSSDKTHTDIVMTQSPATLSLSPGERATLSCRSSKSLQNVNGNTYLYWFQQKPGQSPQLLIYRMSNLNSGVPDRFSGSGSGTEFTLTISSLEPEDFAVYYCMQHLEYPITFGAGTKLEIKRTVAAPSVFIFPPSDEQLKSGTASVVCLLNNFYPREAKVQWKVDNALQSGNSQESVTEQDSKDSTYSLSSTLTLSKADYEKHKVYACEVTHQGLSSPVTKSFNRGEC	4.1	3.32	8.83	2.19	2.56	4.06	5
CD19 BRIDGE variant B19 (Fab, V domains shown) VH: EVQLVESGGGLVKPGGSLKLSCAASGYTFTSYVMHWVRQAPGKGLEWIGYINPYNDGTKYNEKFQGRVTISSDKSISTAYMELSSLRSEDTAMYYCARGTYYYGTRVFDYWGQGTLVTVSS VL: DIVMTQSPATLSLSPGERATLSCRSSKSLQNVNGNTYLYWFQQKPGQSPQLLIYRMSNLNSGVPDRFSGSGSGTEFTLTISSLEPEDFAVYYCMQHLEYPITFGAGTKLEIKR	4.1	3.51	10.7	2.16	2.7	4.9	4.9
CD19 BRIDGE variant B20 (Fab, V domains shown) VH: EVQLVESGGGLVKPGGSLKLSCAASGYTFTSYVMHWVRQAPGKGLEWIGYINPYNDGTKYNEKFQGRVTISSDKSISTAYMELSSLRSEDTAMYYCARGTYYYGTRVFDYWGQGTLVTVSS VL: DIVMTQSPATLSLSPGERATLSCRSSKSLQNVNGNTYLYWFQQKPGQSPQLLIYRMSNLNSGVPDRFSGSGSGTEFTLTISSLEPEDFAVYYCMQHLEYPITFGAGTKLEIKR	4.1	3.39	9.07	2.11	2.61	4.17	4.8

Continued, values first:

HisTag MFI Ratio of EGFR+/EGFR- (nfP2X7 CAR 1 [1])	MFIR HisTag FITC (CD19 [2])	MFIR BIL03 AF647 (CD19 [3])	MFI HisTag FITC in EGFR+ Population (nfP2X7 CAR 1 [4])	MFI HisTag FITC (CD19 [5])	MFI Bil03 AF647 (CD19 [6])	HisTag MFI Ratio (background 0.44) (nfP2X7 CAR 1 [7])	Binder
4.4	3.1	14.8	2.34	2.39	6.82	5.3	CD19 BRIDGE variant B23 (Fab) heavy: EVQLVESGGGLVKPGGSLKLSCAASGYTFTSYVMHWVRQAPGKGLEWIGYINPYNDGTKYNEKFQGRVTISSDKSISTAYMELSSLRSEDTAMYYCARGTYYYGTRVFDYWGQGTLVTVSSASTKGPSVFPLAPSSKSTSGGTAALGCLVKDYFPEPVTVSWNSGALTSGVHTFPAVLQSSGLYSLSSVVTVPSSSLGTQTYICNVNHKPSNTKVDKKVEPKSCHHHHHH light: DFPGHNYTTRNILPGLNITSTFHKTSGSGKGSEPKSSDKTHTDIVMTQSPATLSLSPGERATLSCRSSKSLQNVNGNTYLYWFQQKPGQSPQLLIYRMSNLNSGVPDRFSGSGSGTEFTLTISSLEPEDFAVYYCMQHLEYPITFGAGTKLEIKRTVAAPSVFIFPPSDEQLKSGTASVVCLLNNFYPREAKVQWKVDNALQSGNSQESVTEQDSKDSTYSLSSTLTLSKADYEKHKVYACEVTHQGLSSPVTKSFNRGEC
4	3.01	10.9	2.28	2.32	5	5.2	CD19 BRIDGE variant B25 (Fab, V domains shown) VH: EVQLVESGGGLVKPGGSLKLSCAASGYTFTSYVMHWVRQAPGKGLEWIGYINPYNDGTKYNEKFQGRVTISSDKSISTAYMELSSLRSEDTAMYYCARGTYYYGTRVFDYWGQGTLVTVSS VL: DIVMTQSPATLSLSPGERATLSCRSSKSLQNVNGNTYLYWFQQKPGQSPQLLIYRMSNLNSGVPDRFSGSGSGTEFTLTISSLEPEDFAVYYCMQHLEYPITFGAGTKLEIKR
